Results as given in patent US5472872.

Assays:
[1] = target: T1, R.CviJI restriction endonuclease (Chlorella virus IL-3A) (UniProt P52283); assay: cleavage_in_vitro
T1 sequence: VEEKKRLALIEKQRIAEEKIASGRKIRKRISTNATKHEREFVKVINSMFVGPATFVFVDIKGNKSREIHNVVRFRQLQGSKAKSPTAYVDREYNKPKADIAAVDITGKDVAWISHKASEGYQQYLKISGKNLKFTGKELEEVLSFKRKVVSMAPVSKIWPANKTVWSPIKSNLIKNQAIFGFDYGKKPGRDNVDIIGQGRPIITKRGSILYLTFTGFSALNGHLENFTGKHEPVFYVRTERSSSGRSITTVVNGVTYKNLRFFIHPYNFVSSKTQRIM

[2] = test system: M.CviJI methyltransferase (Chlorella virus IL-3A); assay: cell_activity; conditions: p710 in E. coli; SacI 90%, HindIII 25%; improved-translation plasmids appeared 100% resistant
[3] = CviJI*, 3 uncleaved, CviJI** 0 of 76 (Table 5)
[4] = CviJI*, 5 uncleaved, CviJI** 1 of 76 (Table 5)

CGCT (double strand) [CGCT site in pUC19 (relaxed R1 PyGCPy)]
activity (cleaved junctions of 200) ([1]; CviJI*, 7 uncleaved, CviJI** 2 of 76 (Table 5)): 17

CGCC (double strand) [CGCC site in pUC19 (relaxed R1 PyGCPy)]
activity (cleaved junctions of 200) ([1]; CviJI*, 4 uncleaved, CviJI** 0 of 76 (Table 5)): 11

GGCA (double strand) [GGCA site in pUC19 (relaxed R2 PuGCPu)]
activity (cleaved junctions of 200) [1, 3]: 11

AGCG (double strand) [AGCG site in pUC19 (relaxed R2 PuGCPu)]
activity (cleaved junctions of 200) ([1]; CviJI*, 11 uncleaved, CviJI** 0 of 76 (Table 5)): 12

plasmid p710/pBMC5 (G/A)GC(T/C/G) sites
activity (% resistance to HaeIII) [2]: 90

AGCT (double strand) [AGCT site in pUC19 (normal PuGCPy)]
activity (cleaved junctions of 200) ([1]; CviJI*, 0 uncleaved, CviJI** 25 of 76 (Table 5)): 35

TGCC (double strand) [TGCC site in pUC19 (relaxed R1 PyGCPy)]
activity (cleaved junctions of 200) ([1]; CviJI*, 10 uncleaved, printed TOCC in Table 2, CviJI** 2 of 76 (Table 5)): 13

GGCT (double strand) [GGCT site in pUC19 (normal PuGCPy)]
activity (cleaved junctions of 200) ([1]; CviJI*, 0 uncleaved, CviJI** 12 of 76 (Table 5)): 13

AGCC (double strand) [AGCC site in pUC19 (normal PuGCPy)]
activity (cleaved junctions of 200) ([1]; CviJI* (Mg, ATP, DTT), 1 uncleaved, CviJI** 13 of 76 (Table 5)): 23

TGCA (double strand) [TGCA site in pUC19 (R3 PyGCPu)]
activity (cleaved junctions of 200) ([1]; CviJI*, 19 uncleaved, CviJI** 0 of 76 (Table 5)): 0

TGCT (double strand) [TGCT site in pUC19 (relaxed R1 PyGCPy)]
activity (cleaved junctions of 200) [1, 4]: 10

CGCA (double strand) [CGCA site in pUC19 (R3 PyGCPu)]
activity (cleaved junctions of 200) ([1]; CviJI*, 12 uncleaved, CviJI** 0 of 76 (Table 5)): 0

AGCA (double strand) [AGCA site in pUC19 (relaxed R2 PuGCPu)]
activity (cleaved junctions of 200) [1, 4]: 13

TGCG (double strand) [TGCG site in pUC19 (R3 PyGCPu)]
activity (cleaved junctions of 200) [1, 3]: 0

GGCG (double strand) [GGCG site in pUC19 (relaxed R2 PuGCPu)]
activity (cleaved junctions of 200) ([1]; CviJI*, 8 uncleaved, CviJI** 4 of 76 (Table 5)): 18

GGCC (double strand) [GGCC site in pUC19 (normal PuGCPy)]
activity (cleaved junctions of 200) ([1]; CviJI*, 1 uncleaved, CviJI** 16 of 76 (Table 5)): 24

CGCG (double strand) [CGCG site in pUC19 (R3 PyGCPu)]
activity (cleaved junctions of 200) ([1]; CviJI*, 27 uncleaved, CviJI** 0 of 76 (Table 5)): 0
